Data set [1] in a line: Surfactant resistance (residual activity) of CFP-T7 single variants, 0.01% CTAC. In kind it is biochemical. To be noted: 30°C, 5 minutes, 30 mM MES/21 mM Tris buffer (pH6.5), crude enzyme. How it is done:
Reagent 1 (2.7 ml), reagent 2 (100 μl) and reagent 3 (100 μl) were mixed and preheated at 37° C. for 5 minutes. Then, to the mixture, an enzyme solution (100 μl) was added and thoroughly mixed. Thereafter, the absorbance of the mixture at 555 nm is measured by a spectrophotometer (U-3010, manufactured by Hitachi High-Technologies). Measurement is performed at 555 nm from one minute to three minutes and an absorbance change per minute is specified as the measurement value. A control solution is prepared in the same manner as above except that ion-exchanged water (100 μl) is used in place of reagent 3 (100 μl).
An amadoriase crude enzyme solution or an amadoriase purified sample is diluted with a 30 mM MES/21 mM Tris buffer solution (pH6.5) so as to have a concentration of about 1.0 U/ml. To this, CTAC (for example, manufactured by Tokyo Kasei Kogyo Co., Ltd.) is added so as to obtain a final concentration 0.01% (w/v) or 0.04%. The resultant mixture is heated at 30° C. for 5 minutes. After heating, the mixture is diluted double with a 10 mM phosphate buffer (pH7.0) containing 0.15% BSA to prepare a sample. The enzyme activities of the sample before and after a surfactant treatment are measured by the method described in Section B above. […] In this manner, surfactant resistance is evaluated. […]

A short description of data set [2]: Surfactant resistance (residual activity) of CFP-D multiple variants, 0.04% CTAC. The format is biochemical. The note with it: 30°C, 5 minutes, crude enzyme. How it is done:
An amadoriase crude enzyme solution or an amadoriase purified sample is diluted with a 30 mM MES/21 mM Tris buffer solution (pH6.5) so as to have a concentration of about 1.0 U/ml. To this, CTAC (for example, manufactured by Tokyo Kasei Kogyo Co., Ltd.) is added so as to obtain a final concentration 0.01% (w/v) or 0.04%. The resultant mixture is heated at 30° C. for 5 minutes. After heating, the mixture is diluted double with a 10 mM phosphate buffer (pH7.0) containing 0.15% BSA to prepare a sample. The enzyme activities of the sample before and after a surfactant treatment are measured by the method described in Section B above. The ratio of activity of the sample after the surfactant treatment relative to the activity of the sample before the surfactant treatment (regarded as 100), i.e., the residual activity (%), is obtained. In this manner, surfactant resistance is evaluated. […]

Another data set has as its system CFP-T7. The data set can be described thus: Surfactant resistance of amadoriase during addition of each stabilizer (CFP-T7). The note with it: Stabilizer None, 500 mM HEPES (pH 7.0), 0.01% CTAC. In kind it is biochemical, genus Coniochaeta. How it is done: In the above surfactant resistance measuring method, various stabilizers are added and the residual activity of an amadoriase is measured in order to evaluate the effect of the stabilizers. […] The concentration sufficient to provide a buffer capacity to a solution refers to the concentration at which pH is maintained within a predetermined range (for example pH5 to 10, pH6 to 8) without having pH change due to other reagents added to the solution. A concentration insufficient to provide a buffer capacity to a solution refers to the concentration at which pH changes by addition of other reagents to the solution and pH falls outside a particular range. These concentrations vary depending upon the type and amount of other reagents to be added to a solution; however, a person skilled in the art can appropriately determine the concentration by conventional methods. Other conditions and procedure can be the same as in the above surfactant resistance measuring method.
It was studied whether or not the addition of any of various stabilizers enhanced the surfactant resistance of an amadoriase. Phosphoric acid, a tricarboxylic acid (e.g., citric acid), a dicarboxylic acid (e.g., malic acid, maleic acid, citraconic acid, malonic acid, glutaric acid, or tartaric acid), a monpcarboxylic acid (e.g., acetic acid), MES, MOPS, MOPSO, or ammonium sulfate was used as a stabilizer. As a Comparative Example, CHES was used. To prevent change in pH when adding the stabilizer, 500 mM HEPES (pH 7.0) was used as a buffer solution; CFP-T7 purified as described above was used as a sample; the final concentration of CTAC was set at 0.01%; and any of the stabilizers was further added to evaluate the surfactant resistance of CFP-T7 according to the measurement method for surfactant resistance in Example 1. Using a 500 mM HEPES (pH 7.0) buffering agent and CFP-D2 purified as described above as a sample, any of the stabilizers was further added, and the surfactant resistance of CFP-D2 was evaluated according to the measurement method for surfactant resistance in Example 1 although under more harsh surfactant treatment conditions in which the final concentration of CTAC was set at 0.08% and the treatment temperature at 37° C.

B1: CFP-T7: amadoriase derived from the genus Coniochaeta, SEQ ID NO: 1; triple variant with mutations at positions 272, 302 and 388 (protein, listed as Coniochaeta sp.)
chain: MTSNRADTRVIVVGGGGTIGSSTALHLVRSGYAPANITVLDTFEIPSAQSAGHDLNKIMGIRLRNKVDLQMSLEARQMWKEDELFQPFFHNTGRMDCEHTPEGIEDLKKQYQALHDAGAGLEKTHAWLDNEDEILSKMPLLQRDQIQGWKAIWSQDGGWLAAAKAINAIGQFLKERGVKFGFGGAGSFKQPLFDDEGTTCIGVETADGTKYYADKVVLAAGAWSPTLVDLEDQCCSKAWVYAHIQLTPEEAAEYKGVPVVYNGEFGFFFEPDEFGVIKVCDEFPGFSRFKEHQPYGAPSPKRISVPRSHAKHPTDTYPDASEVSIKKAIATFLPRFQDKELFNRALCWCTDTADAALLMCEHPKWKNFILATGDSGHSFKILPNVGKYVVELIEGRLPEEMAYQWRWRPGGDALKSRRAAPPKDLADMPGWKHDPKL
With B1, the “Residual Activity(%)” value was determined as 69.9% in data set [1] and 2.27% in data set [2]. Further, the figures for the “CFP-T7 Residual Activity (%)” value in the data set on CFP-T7 (Table 9-1) and in the data set with CFP-T7 (Table 9-2) were 4.7% and 3.1%, respectively.

The values above are taken from patent US11549134B2, “Modified amadoriase and method for producing the same, agent for improving surfactant resistance of amadoriase and composition for measuring HbA1c using the same” (Kikkoman Corporation, priority 2013, dated 2023).
